# Assay results taken from patent US9902783B2, “Antibodies and pharmaceutical compositions containing same useful for inhibiting activity of metalloproteins” (Yeda Research and Development Co. Ltd., priority 2007, dated 2018).
# Where “and” joins values, the source holds several entries; their conditions need not be identical. Equal values may be shown once. Entries after “also recorded” stand apart in the source; their conditions may differ.
# T1: Alcohol Dehydrogenase (TbADH) (Thermoanaerobacter brockii, UniProt P14941)
# T1 sequence (P14941 1-352): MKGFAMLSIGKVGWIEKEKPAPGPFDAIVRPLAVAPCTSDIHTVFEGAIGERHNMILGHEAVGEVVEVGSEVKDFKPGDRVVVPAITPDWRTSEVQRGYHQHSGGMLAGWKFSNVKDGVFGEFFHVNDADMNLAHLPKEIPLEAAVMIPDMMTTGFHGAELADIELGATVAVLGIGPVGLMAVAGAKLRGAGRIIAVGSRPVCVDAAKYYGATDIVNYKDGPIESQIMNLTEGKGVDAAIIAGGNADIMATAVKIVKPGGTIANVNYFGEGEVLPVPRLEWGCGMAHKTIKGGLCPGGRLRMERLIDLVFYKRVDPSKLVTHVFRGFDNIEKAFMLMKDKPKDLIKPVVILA
# T2: brockii alcohol dehydrogenase (TbADH) (Thermoanaerobacter brockii, UniProt P14941)
# T2 sequence (P14941 1-352): T1 sequence (P14941 1-352)
# B1: 6C6: monoclonal antibody, IgG2a, raised against the hapten Imisdp; MMP-2 and MMP-9 inhibitory; SEQ ID NO: 1 (protein)
# chain: CMETTQTPLSLPVSLGDQASISCRSSQSIVHSNGNTFLEWYLQKPGQSPKLLIYKVSNCRFSGVPDRFSGSGSGTDFTLKISRVEAEDLGVYYCFQASHVPPTFGGG
# modifications: 6c6 mAb light chain
# B2: 13E11: monoclonal antibody, IgG2b, raised against the hapten CoTCPP (antibody, V domains shown)
# VH: EGGGLVQPGGSRKLSCAASGFTFTSFGMHWVRQAPEKGLEWVAYISSGNEIIYYADTVKGRFTISRDNPKNTLFLQMTSLRSEDTAMYYCARNYYRYGFYVMDYWGQG
# VL: EIVVTQSPAILSASPGEKVTMTCRASSSVSYMHWYQQKPGSSPKPWIYATSNELASGVPARFSGSGSGTSYSLTISRVEAEDAATYYCQQWISNPLTFGAG
# modifications: 13E11 mAb heavy chain; 13E11 mAb light chain
# notes: monoclonal antibody, IgG2b, raised against the hapten CoTCPP
# Key:
# [1] = competitive ELISA, affinity of mAbs toward their immunizing hapten; details: concentration of soluble hapten for 50% binding
# Experimental: Supernatants of the growing hybridomas were screened for antibodies reactive with ZnTCPP, CoTCPP or Imisdp using direct ELISA in which respective hapten-BSA (3 μg/ml in PBS) was coated to Nunc maxisorp plates. The coating was performed at 4° C. overnight and incubation with antibodies at 20° C. for 1 h. HRP-conjugated anti-mouse mAb (Sigma) was used as the secondary antibody and 2,2′-azino-bis (3-ethylbenzthiazoline-6-sulphonic acid, ABTS, Sigma) was used as substrate. PBS containing 0.005% v/v Tween 20 (PBST) was used as washing reagent. The dilution buffer was PBS. A602 was recorded by microplate reader in […]luor Plus spectrometer (Tecan, Austria). As control supernatants were incubated with BSA coated plates in the same manner Absorbance values above 0.5 millioptical density were considered as positive.
# Different dilutions of hybridoma supernatant were incubated with hapten-BSA coated plates following the steps described earlier. Titration curve was plotted and the titer dilution was determined at 50% of binding. Supernatants diluted to the titer concentration were preincubated with soluble ZnTCPP, CoTCPP or Imisdp compounds for 30 minutes and then transferred to hapten-coated microtiter plates following the steps described previously. The estimated dissociation constant was the concentration of soluble hapten required to attain 50% binding.
# MMP-2 [2] = assay: kinetic assay with fluorogenic peptide substrate, MMP-2; assay type: biochemical, human; details: for inhibition of proteolytic activity of MMP-2: continuous fluorometric assay
# MMP-9 = assay: kinetic assay with fluorogenic peptide substrate, MMP-9; assay type: biochemical, human; details: for mode of inhibition of MMP-9: Lineweaver-Burk plot; for IC50: Table 4; for inhibition of proteolytic activity of MMP-9: continuous fluorometric assay
# Chain of MMP-9 (P14780 107-444 limits assumed): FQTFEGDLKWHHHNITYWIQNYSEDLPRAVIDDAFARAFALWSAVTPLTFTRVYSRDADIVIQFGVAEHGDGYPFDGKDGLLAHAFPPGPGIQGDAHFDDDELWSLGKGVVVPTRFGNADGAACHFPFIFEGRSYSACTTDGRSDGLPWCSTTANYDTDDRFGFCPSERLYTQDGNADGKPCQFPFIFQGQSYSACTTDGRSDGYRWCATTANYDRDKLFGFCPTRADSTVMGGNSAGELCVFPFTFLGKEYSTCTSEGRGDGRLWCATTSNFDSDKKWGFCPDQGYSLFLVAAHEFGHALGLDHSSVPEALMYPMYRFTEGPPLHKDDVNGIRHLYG
# MT1-MMP (MMP-14) = MT1-MMP (MMP-14) (Homo sapiens, UniProt P50281); assay: kinetic assay with fluorogenic peptide substrate, MT1-MMP; assay type: biochemical; details: for Ki: fit to competitive inhibition, fluorogenic peptide substrate
# TACE (ADAM-17) = TACE (ADAM-17) (Homo sapiens, UniProt P78536); assay: kinetic assay with fluorogenic peptide QF-45, TACE; assay type: biochemical; details: for inhibitory effect toward TACE: in-vitro fluorescence enzymatic activity assay
# Chain of TACE (ADAM-17) (P78536 215-824, species assumed): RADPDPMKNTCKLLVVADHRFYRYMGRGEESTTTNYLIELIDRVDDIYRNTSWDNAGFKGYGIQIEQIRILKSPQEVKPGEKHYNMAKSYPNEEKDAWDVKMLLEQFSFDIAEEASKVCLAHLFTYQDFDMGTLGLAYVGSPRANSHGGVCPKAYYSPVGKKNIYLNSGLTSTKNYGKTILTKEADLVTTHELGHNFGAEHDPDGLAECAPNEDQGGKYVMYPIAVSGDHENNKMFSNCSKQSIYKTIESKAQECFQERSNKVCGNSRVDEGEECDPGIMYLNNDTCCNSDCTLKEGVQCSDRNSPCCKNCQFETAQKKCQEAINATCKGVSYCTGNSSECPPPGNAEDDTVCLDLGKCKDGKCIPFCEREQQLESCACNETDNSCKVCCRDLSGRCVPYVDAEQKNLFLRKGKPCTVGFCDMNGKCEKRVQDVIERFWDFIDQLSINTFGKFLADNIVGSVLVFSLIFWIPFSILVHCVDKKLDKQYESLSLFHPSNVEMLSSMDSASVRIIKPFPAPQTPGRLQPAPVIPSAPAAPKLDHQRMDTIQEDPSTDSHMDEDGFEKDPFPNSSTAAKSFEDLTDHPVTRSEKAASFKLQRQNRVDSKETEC
# [3] = system: cell surface gelatinolytic activity of HT1080 cells; assay: in situ zymography with DQ-gelatin; assay type: cell-based, human
# Experimental: To localize net gelatinolytic activity of MMPs by in situ zymography, fluorescein isothiocyanate-labeled DQ gelatin that is intramolecularly quenched (Molecular Probes) was used as a substrate for degradation by gelatinases. Proteolysis by gelatinases yields cleaved fluorescein isothiocyanate-gelatin peptides and the localization of this fluorescence indicates the sites of net gelatinolytic activity. Briefly, Human fibrosarcoma HT1080 cells (which produce MMP-2, MMP-9 and MT1-MMP) were plated on 12-mm coverslips. […] Untreated cells served as negative control for this experiment. Cells were washed with PBS and then incubated with zymography reaction buffer (0.05 M Tris-HCl, 0.15 M NaCl, 5 mM CaCl2, and 0.2 mM NaN3, pH 7.6, the high concentration of azide prevented the gelatin from being phagocytosed and thus allowing cell surface gelatinolytic activity to occur) containing 60 ug/ml DQ gelatin at 37° C. overnight. […] At the end of the incubation period, without fixation or further washes, gelatinolytic activity of the MMPs was localized and photographed by fluorescence microscopy and images were acquired by Spot digital camera.
# To confirm the inhibitory activity of anti CoTCPP mAb at cellular level, the effect of the antibody was examined on gelatinolytic activity of human fibrosarcoma HT1080 cells that constitutively secrete MMP-2 and 9 by in situ zymography. To localize gelatinolytic activity of MMPs by in situ zymography, fluorescein isothiocyanate-labeled gelatin that is intramolecularly quenched (DQ-gelatin) was used as substrate. Proteolysis by gelatinases yields cleaved fluorescein isothiocyanate-gelatin peptides and the localization of this fluorescence indicates the sites of net gelatinolytic activity.
# Carbonic Anhydrase (CA) [4] = assay: functional inhibition experiment, Carbonic Anhydrase; assay type: biochemical; details: for inhibition of Carbonic Anhydrase: in vitro functional inhibition
# Excerpt: (§1) The selectivity of anti CoTCPP and anti Imisdp was further challenged, by testing their cross reactivity with non related zinc dependent enzymes—Carbonic Anhydrase (CA) and brockii alcohol dehydrogenase (TbADH). Similar to active MMPs CA contains a zinc ion that is tetrahedraly coordinated to three histidine residues and a water molecule, TbADH contains a catalytic zinc ion that is tetraheadrally coordinated to four different amino acid residues, histidine, cysteine, aspartate and glutamate. […] Anti CoTCPP mAb was also tested for its cross reactivity with related physiological porphyrins such as the Heme group within Myoglobin and Hemoglobin and vitamin.
# (§2) 6C6 was also tested for cross reactivity with different zinc dependent metalloproteases, Carbonic Anhydrase and Alcohol Dehydrogenase. Analogous to MMPs, Carbonic Anhydrase (CA) has a catalytic zinc ion tetrahedraly coordinated to three histidine ligands and a water molecule. Consequently, several potent small molecule MMP inhibitors (of the sulfonylated amino acid hydroxamate type) also act as efficient CA inhibitors and vice versa. Some N-hydroxysulfonamides investigated previously as CA inhibitors also show inhibitory properties against MMPs [Scozzafava, A. and C. T. Supuran, J Med Chem, 2000. 43(20): p. 3677-87]. The active site of Alcohol Dehydrogenase from thermophilic bacterium (TbADH) includes a different zinc-protein moiety in which zinc is bound to histidine, cysteine, aspartate and glutamate located inside a crevice.
# Carbonic Anhydrase (CA) [5] = assay: immuno affinity binding experiment, Carbonic Anhydrase
# Excerpt: as §1
# [6] = biological target: T1, Alcohol Dehydrogenase (TbADH); assay: functional inhibition experiment, alcohol dehydrogenase; assay type: biochemical, thermophilic bacterium; details: for inhibition of TbADH: in vitro functional inhibition
# Excerpt: as §1, §2
# [7] = biological target: T2, brockii alcohol dehydrogenase (TbADH); assay: immuno affinity binding experiment, alcohol dehydrogenase; set-up: species or system thermophilic bacterium
# Excerpt: as §1
# MMP-2 [8] = biological target: MMP-2 (Mus musculus, UniProt P33434); assay: kinetic assay with fluorogenic peptide substrate, MMP-2; assay type: biochemical, human
# Chain of MMP-2 (Mus musculus, UniProt P33434) (P33434 110-467): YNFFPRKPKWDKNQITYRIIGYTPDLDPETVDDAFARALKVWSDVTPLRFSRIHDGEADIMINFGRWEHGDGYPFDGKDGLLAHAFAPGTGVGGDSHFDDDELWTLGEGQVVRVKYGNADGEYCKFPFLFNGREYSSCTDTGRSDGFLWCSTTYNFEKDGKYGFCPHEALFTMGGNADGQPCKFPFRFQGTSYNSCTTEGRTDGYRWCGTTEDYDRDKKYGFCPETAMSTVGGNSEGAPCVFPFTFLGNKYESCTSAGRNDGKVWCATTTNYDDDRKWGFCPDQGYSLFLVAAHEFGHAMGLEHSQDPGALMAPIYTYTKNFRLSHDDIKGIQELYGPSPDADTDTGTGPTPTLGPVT
Molecule,Kd [1],inhibition of proteolytic activity of MMP-2 (MMP-2 [2]),mode of inhibition of MMP-9 (MMP-9),IC50 (MMP-9),inhibition of proteolytic activity of MMP-9 (MMP-9),inhibitory effect toward TACE (TACE (ADAM-17)),inhibition of Carbonic Anhydrase (Carbonic Anhydrase (CA) [4]),binding to Carbonic Anhydrase (Carbonic Anhydrase (CA) [5]),inhibition of TbADH [6],binding to TbADH [7],other results
B1,0.09 µM,inhibited,competitive inhibition profile,4.5 ± 0.2 µM,inhibited,did not display inhibitory effect,no binding or inhibition,no binding,no binding or inhibition,no binding,IC50 (MMP-2 [2]; Table 4): 3 ± 0.2 µM; IC50 (MT1-MMP (MMP-14); Table 4): 14.4 ± 0.7 µM; Ki (MT1-MMP (MMP-14)): 14.4 µM and 15 µM; Ki (MT1-MMP (MMP-14); listed as anti Imisdp mAb): 10 µM; IC50 (TACE (ADAM-17); Table 4): > 30 µM; inhibition of TACE (TACE (ADAM-17); mAb concentrations of up to 30 μM): neither MMP-7 nor TACE were inhibited to any measurable extent; cell surface gelatinolytic activity ([3]; 5 μM mAb): significantly decreased; also recorded: significantly inhibited; inhibitory effect toward Carbonic Anhydrase (Carbonic Anhydrase (CA) [4]; mAb concentrations up to 30 μM): no inhibitory effect; inhibitory effect toward TbADH ([6]; mAb concentrations up to 30 μM): no inhibitory effect
B2,0.09 µM,inhibited,competitive inhibitor,15 ± 0.8 µM,inhibited,no inhibitory effect,no binding or inhibition,no binding,no binding or inhibition,no binding,"mode of inhibition of MMP-2 (MMP-2 [8]): competitive inhibitor; inhibitory effect toward MT1-MMP (MT1-MMP (MMP-14); in-vitro fluorescence enzymatic activity assay): no inhibitory effect; cell surface gelatinase activity ([3]; 1 μM mAb, listed as anti CoTCPP mAb): reduced; also recorded: significantly inhibited"
